This note sets out measurements from article PMC12005765 (Advanced Science, 2025).

As usually defined, the Kd is the equilibrium constant for the complex coming apart. For orientation: koff means a measure of how fast the partners let go of each other. A word on the kon: it is a measure of how fast the partners come together.

For experiment [1], the target named is CD3 epsilon-delta heterodimeric protein (Acro Biosystems) (Homo sapiens (assumed)) (UniProt P07766). The experiment is described as follows: SPR; IgGs or Fc fusions captured on antihuman Fc polyclonal antibodies amine-coupled to a CM5 chip; spike trimer or CD3 epsilon-delta heterodimer injected; blank flow cell subtracted; 1:1 Langmuir model, simultaneous global fit of ka and kd, KD = kd/ka; BIAcore 2000 (methods) or BIAcore T100 (footnote of Table S3). For orientation: SPR reads the build-up and loss of mass on a sensor chip optically.

The target in experiment [2] is T1, CD3 epsilon-delta heterodimeric protein (Acro Biosystems) (Homo sapiens (assumed), UniProt P07766;P04234).
T1 construct: also called recombinant CD3delta epsilon; CD3delta-epsilon
T1 sequence (P07766 23-126, stated change not applied, chain 1 of 2): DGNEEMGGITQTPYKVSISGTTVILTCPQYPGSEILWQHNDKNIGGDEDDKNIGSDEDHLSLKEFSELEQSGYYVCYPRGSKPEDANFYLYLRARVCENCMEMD
T1 sequence (P04234 22-171, stated change not applied, chain 2 of 2): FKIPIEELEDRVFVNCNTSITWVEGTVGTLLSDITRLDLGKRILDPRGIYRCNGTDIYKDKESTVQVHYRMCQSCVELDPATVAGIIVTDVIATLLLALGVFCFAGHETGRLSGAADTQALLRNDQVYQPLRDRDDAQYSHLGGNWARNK
The description is as above. The settings on record: both partners purified.

In experiment [1], “SC02, anti-S/CD3 bispecific CrossMab from CV3-25/UCHT1 (bispecific antibody)” registered an equilibrium dissociation constant (Kd) of 0.29 nM, a koff of 0.000285 s⁻¹ and a kon of 974000 M⁻¹ s⁻¹.

B1: humanized UCHT1 (anti-CD3) (antibody, V domains shown)
VH: EVQLVESGGGLVQPGGSLRLSCAASGYSFTGYTMNWVRQAPGKGLEWVALINPYKGVSTYNQKFKDRFTISVDKSKNTAYLQMNSLRAEDTAVYYCARSGYYGDSDWYFDVWGQGTLVTVSS
VL: DIQMTQSPSSLSASVGDRVTITCRASQDIRNYLNWYQQKPGKAPKLLIYYTSRLESGVPSRFSGSGSGTDYTLTISSLQPEDFATYYCQQGNTLPWTFGQGTKVEIK
notes: also called anti-CD3 antibody
Consider B1, for which, in experiment [2], the Kd turned out to be 0.16 nM.
